Blank lines part the entries; values can stand above or below the binder they belong to.
How the values were obtained:
[1] = molecular target: T1, recombinant human PCSK9-His protein (Immunogen A) (human, UniProt Q8NBP7 31-692, limits assumed, biotinylated in the ELISA assays); assay: ELISA of PCSK9 binding to LDLR ECD; antibody 0.01 nM
T1 construct: also called hPCSK9-His; His-tagged hPCSK9; not shown: His tag

[2] = molecular target: T1, recombinant human PCSK9-His protein …; assay: ELISA; antibody 0 nM
[3] = molecular target: T1, recombinant human PCSK9-His protein …; assay: ELISA; antibody 0.067 nM
[4] = molecular target: T2, recombinant cyno monkey PCSK9 protein (cyno monkey, UniProt A8T666 31-692 (rhesus entry), limits assumed, biotinylated in the ELISA assays); assay: ELISA; antibody 0.0067 nM
T2 construct: also called cyno PCSK9; Cyno Monkey PCSK9-His

[5] = molecular target: T1, recombinant human PCSK9-His protein …; assay: ELISA of PCSK9 binding to LDLR ECD; antibody 40 nM
[6] = molecular target: T2, recombinant cyno monkey PCSK9 protein; assay: ELISA; antibody 66.67 nM
[7] = molecular target: T1, recombinant human PCSK9-His protein …; assay: ELISA of PCSK9 binding to LDLR ECD; antibody 0.32 nM
[8] = molecular target: T1, recombinant human PCSK9-His protein …; assay: ELISA of PCSK9 binding to LDLR ECD; antibody 1.6 nM
[9] = molecular target: T2, recombinant cyno monkey PCSK9 protein; assay: ELISA; antibody 6.67 nM
[10] = molecular target: T2, recombinant cyno monkey PCSK9 protein; assay: ELISA; antibody 0 nM
[11] = molecular target: T1, recombinant human PCSK9-His protein …; assay: ELISA; antibody 0.00067 nM
[12] = molecular target: T1, recombinant human PCSK9-His protein …; assay: ELISA of PCSK9 binding to LDLR ECD; antibody 0.06 nM
[13] = molecular target: T1, recombinant human PCSK9-His protein …; assay: ELISA of PCSK9 binding to LDLR ECD; antibody 0 nM
[14] = molecular target: T1, recombinant human PCSK9-His protein …; assay: ELISA; antibody 0.000067 nM
[15] = molecular target: T2, recombinant cyno monkey PCSK9 protein; assay: ELISA; antibody 0.067 nM
[16] = molecular target: T1, recombinant human PCSK9-His protein …; assay: ELISA of PCSK9 binding to LDLR ECD; antibody 200 nM
[17] = molecular target: T2, recombinant cyno monkey PCSK9 protein; assay: ELISA; antibody 0.67 nM
[18] = molecular target: T1, recombinant human PCSK9-His protein …; assay: ELISA; antibody 66.67 nM
[19] = molecular target: T1, recombinant human PCSK9-His protein …; assay: ELISA; antibody 6.67 nM
[20] = molecular target: T1, recombinant human PCSK9-His protein …; assay: BLI, Octet Red 96; antibody on AHC sensor
Procedure: Dissociation constants were determined by Octed red 96 (Fortiebio). The detailed operation and methods were followed according to the specifications of the instrument provided by the manufacturer. Briefly, an AHC sensor (Anti-human Fc sensor, Fortiebio) was used for the affinity determination. The anti-PCSK9 antibody was diluted to 10 ug/mL in PBS buffer (pH7.4) containing 0.1% (w/w) BSA and 0.02% (v/v) Tween 20 and incubated with the AHC sensor. […] The reaction mixture was further incubated in PBS buffer (pH7.4) containing 0.1% (v/w) BSA and 0.02% (v/v) Tween 20 at 30° C. for 5 minutes.

[21] = molecular target: T1, recombinant human PCSK9-His protein …; assay: ELISA; antibody 0.0067 nM
[22] = molecular target: T2, recombinant cyno monkey PCSK9 protein; assay: ELISA; antibody 0.00067 nM
[23] = molecular target: T2, recombinant cyno monkey PCSK9 protein; assay: ELISA; antibody 0.000067 nM
[24] = molecular target: T1, recombinant human PCSK9-His protein …; assay: ELISA; antibody 0.67 nM
[25] = molecular target: T1, recombinant human PCSK9-His protein …; assay: SPR, Biacore T200; antibody captured by anti-human Fc
Procedure: Anti-human Fc IgG was immobilized on flow cells 1 and 2: HBS-EP+(10 mM HEPES, 150 mM NaCl, 3 mM EDTA, 0.05% P20, pH 7.4) was used as running buffer, and the immobilization of anti-human Fc IgG was carried out using the immobilization wizard template. Flow cells 1 and 2 of a Series S CM5 sensor chip were activated with freshly-mixed 50 mmol/L NHS and 200 mmol/L EDC. 20 ug/mL of anti-human Fc IgG diluted in 10 mM NaAC (pH 4.5) was injected into the activated flow cells 1 and 2. The remaining active coupling sites were blocked with 1M ethanolamine.
KD measurements were carried out with HBS-EP+ as the running buffer. Each antibody was injected over the CM5 sensor flow cell 2 with a flow rate of 10 uL/min to reach response 230 RU. […] Buffer flow was maintained for 400 seconds for dissociation measurements (30 uL/min). To remove the tested antibody from the surface, 10 mM glycine-HCl pH 1.5 was injected for 20 seconds (30 ulJmin). Flow cell 1 was used as reference flow cell. […] The KD value for each antibody was evaluated using Biacore T200 evaluation software 1.0, and the data was fit with a 1:1 binding model.

T2 sequence (A8T666 31-692 limits assumed): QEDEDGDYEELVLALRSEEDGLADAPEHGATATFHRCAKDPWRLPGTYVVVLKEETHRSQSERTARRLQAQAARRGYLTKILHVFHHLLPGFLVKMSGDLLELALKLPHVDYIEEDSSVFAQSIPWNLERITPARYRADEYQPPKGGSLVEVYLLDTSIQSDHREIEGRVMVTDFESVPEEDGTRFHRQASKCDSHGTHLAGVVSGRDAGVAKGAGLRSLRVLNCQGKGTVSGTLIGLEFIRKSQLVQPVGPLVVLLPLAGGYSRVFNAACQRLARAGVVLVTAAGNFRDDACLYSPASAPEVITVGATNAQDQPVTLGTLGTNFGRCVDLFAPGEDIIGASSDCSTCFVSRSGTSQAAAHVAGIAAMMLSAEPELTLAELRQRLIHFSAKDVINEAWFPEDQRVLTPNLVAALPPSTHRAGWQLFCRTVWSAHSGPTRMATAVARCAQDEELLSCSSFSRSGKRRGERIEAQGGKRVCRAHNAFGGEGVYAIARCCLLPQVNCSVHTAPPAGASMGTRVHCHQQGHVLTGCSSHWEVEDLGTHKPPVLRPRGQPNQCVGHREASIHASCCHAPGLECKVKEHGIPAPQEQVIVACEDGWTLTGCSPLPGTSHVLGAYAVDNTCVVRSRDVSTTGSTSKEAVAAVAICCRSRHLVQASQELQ

OD450 nm [1]: 2.26 OD450 nm | OD450 nm [2]: 0.06 OD450 nm | OD450 nm [3]: 0.8 OD450 nm | OD450 nm [4]: 0.24 OD450 nm | OD450 nm [5]: 1.35 OD450 nm | OD450 nm [6]: 3 OD450 nm | OD450 nm [7]: 2.31 OD450 nm | OD450 nm [8]: 2.19 OD450 nm | OD450 nm [9]: 3 OD450 nm | OD450 nm [10]: 0.07 OD450 nm | OD450 nm [11]: 0.07 OD450 nm | OD450 nm [12]: 2.28 OD450 nm | OD450 nm [13]: 2.38 OD450 nm | OD450 nm [14]: 0.06 OD450 nm | OD450 nm [15]: 1.46 OD450 nm | OD450 nm [16]: 1.27 OD450 nm | OD450 nm [17]: 2.91 OD450 nm | OD450 nm [18]: 2.97 OD450 nm | OD450 nm [19]: 2.97 OD450 nm | Kd [20]: 12.1 nM | koff [20]: 0.000643 s⁻¹ | kon [20]: 53100 M⁻¹ s⁻¹ | OD450 nm [21]: 0.14 OD450 nm | OD450 nm [22]: 0.08 OD450 nm | OD450 nm [23]: 0.11 OD450 nm | OD450 nm [24]: 2.77 OD450 nm
B1: 76A1B11, fully human anti-PCSK9 antibody (antibody, human IgG1, V domains shown)
VH: QVQLVESGGGVVQPGRSLRLSCAATGFTFSIYGMHWVRQAPGKGLEWVAVIWYDGSNKYYADSVKGRFIISRDNSKNTLYLQMNSLRVEDTAVYYCVSDYFGSGNSYYYYGMDVWGQGTTVTVSS
VL: DIQMTQSPSSLSASVGDRVTITCRASQVISNYLAWYQQKPGKVPKLLIYTASTLQSGVPSRFSGSGSGADFTLTISSLQPEDVATYYCQKYNSAPYTFGQGTKLEIK

Kd [25]: 1.42 nM | Kd [20]: 2.17 nM
B2: 103C11E8, fully human anti-PCSK9 antibody (antibody, human IgG1, V domains shown)
VH: QVQLQESGPGLVKPSGTLSLTCAVSGGSISSSNWWSWVRQPPGKGLEWIGEIYHSGSTNYNPSLKSRVTISVDKSKNQFSLKLSSVTAADTAVYYCARGIAVAGTDVMDAWGQGASVTVSS
VL: EIVLTQSPATLSLSPGERATLSCRASQSVSSYLVWYQQKSGQAPRLLIYGTSNRATGIPARFSGSGSGTDFTLTISSLEPEDFALYYCQQRGNWMYTFGQGTKLEIK

Source: US20180355059A1 (PHARMAEXPLORER, published 2018)
